Assay results: patent US10689421B2, “Bacteriocin-producing Paenibacillus ehimensis and application thereof” (National Pingtung University of Science and Technology, priority 2018, dated 2020)

What was measured:
Format in all cases: physicochemical
E. coli [1] = experiment: Evaluation of antibacterial protein pH tolerance; conditions: 28° C.
Procedure: Add the purified antibacterial substance in PBS buffer pH7.4 as control group. The experimental groups comprise pH 2, pH3, pH 4, pH 5, pH 6, pH 7, pH 8, pH 9 and pH 10 group, the buffer used for different pH treatment are Glycine-HCl buffer (pH 2.0), Citrate-phosphate Mcllvaine buffer (pH 3.0, 4.0, 5.0 and 6.0), Sodium-phosphate buffer (pH 7.0), Tris(hydroxymethyl) aminomethane buffer (pH 8.0 and 9.0) and Glycine-NaOH buffer (pH 10.0). First, add 500 μl of purified antibacterial protein in 15 ml centrifuge individually for each group, then add 2 ml of different pH buffer to change pH environment of treated antibacterial substance and stand for 4 hours under 28° C. After 4 hours, measure the antibacterial activity and inhibitory zone diameter using TSB agar plate containing E. coli.

E. coli [2] = experiment: Antibacterial protein stability under different preservation temperature for 70 days
Procedure: Place purified antibacterial protein Peocin sample in 40° C., room temperature, 4° C. and −20° C. environment respectively for 70 days. Each week during the experiment, extract samples and measure their antibacterial activity and inhibitory zone diameter using TSB agar plate containing E. coli.

proteinase K = proteinase K (Parengyodontium album, UniProt P06873); experiment: Sensitivity of antibacterial protein Peocin to protease; conditions: protease K 1 mg/ml, 4 hours, 37° C.
proteinase K, sequence (P06873 106-384): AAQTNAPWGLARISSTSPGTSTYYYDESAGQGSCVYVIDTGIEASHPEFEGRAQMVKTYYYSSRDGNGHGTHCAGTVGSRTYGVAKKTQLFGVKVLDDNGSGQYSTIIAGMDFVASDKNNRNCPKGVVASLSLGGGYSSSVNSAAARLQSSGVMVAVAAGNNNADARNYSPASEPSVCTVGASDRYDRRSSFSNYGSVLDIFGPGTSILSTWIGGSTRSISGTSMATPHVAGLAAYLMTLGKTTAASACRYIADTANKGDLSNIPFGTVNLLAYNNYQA
Procedure: (§1) Evaluate sensitivity of Peocin to proteinase K and trypsin respectively. First, add 180 μl of purified antibacterial protein peocin into 1.7 ml micro-centrifuge tube, then add 20 μl of 10 mg/ml proteinase K and trypsin respectively for the final concentration of protease to be 1 mg/ml, then stand for 4 hours under 37° C. for reaction. Next, use TSB agar plate containing E. coli to measure the antibacterial activity and inhibitory zone diameter. For comparison, use PBS buffer without antibacterial protein as buffer group, and control group is purified antibacterial protein peocin without protease.

trypsin = experiment: as above; conditions: trypsin 1 mg/ml, 4 hours, 37° C.
Procedure: as §1

B1: Peocin: bacteriocin; DNA starvation/stationary phase protection protein produced by Paenibacillus ehimensis NPUST-1, amino acid SEQ ID NO: 1 (protein, listed as Paenibacillus ehimensis)
chain: MNEQLTVLLNNQIANWSVLYVKLHNYHWYVKGPQFFTLHTKFEELYTEAALHVDALAERLLALGGKPVATMSGSLRLASVREAEGEESAERMVAALVNDFTLIIGELKSGMKYAESVQDETTGDLLLAIHSSLEKHVWMLNAFLGN
antibacterial activity remained (E. coli [1]; pH2 for 4 hours): 87% | antibacterial activity after pH treatment (E. coli [1]; pH 3~10 for 4 hours): remain stable | antibacterial activity remained after preservation (E. coli [2]; 4° C.): 90% | antibacterial activity remained after preservation (E. coli [2]; 40° C.): 66% | antibacterial activity remained after preservation (E. coli [2]; room temperature): 80% | antibacterial activity remained after preservation (E. coli [2]; −20° C.): 90% | antibacterial activity after protease treatment (proteinase K): stable antibacterial activity | antibacterial activity after protease treatment (trypsin): stable antibacterial activity
